Measurements as given in PMC9464890, “Exosite binding modulates the specificity of the immunomodulatory enzyme ScpA, a C5a inactivating bacterial protease” (Computational and Structural Biotechnology Journal, 2022).
Changes are numbered by the printed parent chain. Names and notes keep the numbering of the source.

T1: ScpAΔFn123 (Streptococcus pyogenes) (UniProt P15926)
T1 sequence: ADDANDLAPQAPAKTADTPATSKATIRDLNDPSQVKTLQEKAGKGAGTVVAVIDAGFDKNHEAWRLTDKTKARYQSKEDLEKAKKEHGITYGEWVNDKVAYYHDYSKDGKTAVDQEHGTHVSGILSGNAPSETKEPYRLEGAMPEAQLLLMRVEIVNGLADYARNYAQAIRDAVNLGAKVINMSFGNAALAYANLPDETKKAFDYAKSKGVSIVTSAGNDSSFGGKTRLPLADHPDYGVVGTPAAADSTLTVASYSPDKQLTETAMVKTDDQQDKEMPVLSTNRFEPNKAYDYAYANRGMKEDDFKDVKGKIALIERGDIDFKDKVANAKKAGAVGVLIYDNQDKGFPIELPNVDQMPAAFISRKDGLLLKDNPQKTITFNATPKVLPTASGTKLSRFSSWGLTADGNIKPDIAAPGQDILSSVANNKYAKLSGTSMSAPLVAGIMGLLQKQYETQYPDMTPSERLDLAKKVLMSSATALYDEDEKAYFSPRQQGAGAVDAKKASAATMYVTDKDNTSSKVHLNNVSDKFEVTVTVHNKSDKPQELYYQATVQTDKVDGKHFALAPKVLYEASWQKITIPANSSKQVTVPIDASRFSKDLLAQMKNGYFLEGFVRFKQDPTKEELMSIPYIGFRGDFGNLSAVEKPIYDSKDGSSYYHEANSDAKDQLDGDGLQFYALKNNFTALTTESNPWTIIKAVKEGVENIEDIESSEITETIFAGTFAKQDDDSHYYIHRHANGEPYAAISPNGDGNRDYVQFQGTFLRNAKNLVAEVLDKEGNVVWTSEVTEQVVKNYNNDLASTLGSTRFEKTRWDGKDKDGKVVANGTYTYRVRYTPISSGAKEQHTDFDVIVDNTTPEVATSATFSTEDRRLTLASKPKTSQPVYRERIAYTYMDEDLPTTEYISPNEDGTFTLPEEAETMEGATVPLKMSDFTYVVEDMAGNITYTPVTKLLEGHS

B1: Fn123 (domain or fragment)
chain: T1 sequence
B2: ScpA_(S512A) (enzyme)
chain: ANTVTEDTPVTEQAVETPQPTAVSEEVPSSKETKTPQTPDDAEETIADDANDLAPQAPAKTADTPATSKATIRDLNDPSQVKTLQEKAGKGAGTVVAVIDAGFDKNHEAWRLTDKTKARYQSKEDLEKAKKEHGITYGEWVNDKVAYYHDYSKDGKTAVDQEHGTHVSGILSGNAPSETKEPYRLEGAMPEAQLLLMRVEIVNGLADYARNYAQAIRDAVNLGAKVINMSFGNAALAYANLPDETKKAFDYAKSKGVSIVTSAGNDSSFGGKTRLPLADHPDYGVVGTPAAADSTLTVASYSPDKQLTETAMVKTDDQQDKEMPVLSTNRFEPNKAYDYAYANRGMKEDDFKDVKGKIALIERGDIDFKDKVANAKKAGAVGVLIYDNQDKGFPIELPNVDQMPAAFISRKDGLLLKDNPQKTITFNATPKVLPTASGTKLSRFSSWGLTADGNIKPDIAAPGQDILSSVANNKYAKLSGTAMSAPLVAGIMGLLQKQYETQYPDMTPSERLDLAKKVLMSSATALYDEDEKAYFSPRQQGAGAVDAKKASAATMYVTDKDNTSSKVHLNNVSDKFEVTVTVHNKSDKPQELYYQATVQTDKVDGKHFALAPKVLYEASWQKITIPANSSKQVTVPIDASRFSKDLLAQMKNGYFLEGFVRFKQDPTKEELMSIPYIGFRGDFGNLSAVEKPIYDSKDGSSYYHEANSDAKDQLDGDGLQFYALKNNFTALTTESNPWTIIKAVKEGVENIEDIESSEITETIFAGTFAKQDDDSHYYIHRHANGEPYAAISPNGDGNRDYVQFQGTFLRNAKNLVAEVLDKEGNVVWTSEVTEQVVKNYNNDLASTLGSTRFEKTRWDGKDKDGKVVANGTYTYRVRYTPISSGAKEQHTDFDVIVDNTTPEVATSATFSTEDRRLTLASKPKTSQPVYRERIAYTYMDEDLPTTEYISPNEDGTFTLPEEAETMEGATVPLKMSDFTYVVEDMAGNITYTPVTKLLEGHS
B3: ScpA_(S512A,E864A) (enzyme)
chain: B2 chain with E834A
B4: ScpA_(S512A,D889A) (enzyme)
chain: B2 chain with D859A

Assays:
C5a (Homo sapiens) = C5a (Homo sapiens) (UniProt P01031); assay: SPR; settings: cited from earlier work
[1] = target: T1, ScpAΔFn123 (Streptococcus pyogenes)
rhC5a_(R37A) (human) = assay: SPR; BIAcore X100, NTA sensor chip with about 20-25 RU of immobilised His-tagged C5a form (ligand), ScpA form flowed as ligate at 30 uL/min, 25 °C, 10 mM Hepes-KOH pH 7.4, 150 mM NaCl, 0.005% Tween 20, 50 uM EDTA; global fit, 1:1 Langmuir model with drifting baseline; triplicate
rhC5a_(R46A) (human) = assay: as above
R46A_(core) (human) = assay: as above
R37A_(core) (human) = assay: as above
rhC5a_(R40A) (human) = assay: as above
R40A_(core) (human) = assay: as above
rhC5a_(core) (human) = assay: as above

Chain of C5a (Homo sapiens) (P01031 678-751): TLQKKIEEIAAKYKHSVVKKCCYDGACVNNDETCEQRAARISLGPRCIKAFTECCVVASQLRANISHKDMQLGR

Row | Molecule | Kd (rhC5a_(R37A) (human)) [nM] | koff (rhC5a_(R37A) (human)) [s⁻¹] | kon (rhC5a_(R37A) (human)) [M⁻¹ s⁻¹] | Kd (rhC5a_(R46A) (human)) [nM] | koff (rhC5a_(R46A) (human)) [s⁻¹] | kon (rhC5a_(R46A) (human)) [M⁻¹ s⁻¹] | Kd (R46A_(core) (human)) [nM] | koff (R46A_(core) (human)) [s⁻¹] | kon (R46A_(core) (human)) [M⁻¹ s⁻¹] | Kd (R37A_(core) (human)) [nM] | koff (R37A_(core) (human)) [s⁻¹] | kon (R37A_(core) (human)) [M⁻¹ s⁻¹] | Kd (rhC5a_(R40A) (human)) [nM] | koff (rhC5a_(R40A) (human)) [s⁻¹] | kon (rhC5a_(R40A) (human)) [M⁻¹ s⁻¹] | Kd (R40A_(core) (human)) [nM] | koff (R40A_(core) (human)) [s⁻¹] | kon (R40A_(core) (human)) [M⁻¹ s⁻¹] | Kd (rhC5a_(core) (human)) [nM] | koff (rhC5a_(core) (human)) [s⁻¹] | also measured
1 | ScpA (from UniProt P58099) | – | – | – | – | – | – | – | – | – | – | – | – | – | – | – | – | – | – | – | – | Kd (C5a (Homo sapiens)): 35 nM
2 | B1 | – | – | – | – | – | – | – | – | – | – | – | – | – | – | – | – | – | – | – | – | C5a-ase activity of ScpAΔFn123 complemented with Fn123, end-point assay, relative to the wild-type enzyme (data not shown) [1]: 0.1%
3 | B2 | 217 | 0.0176 | 81200 | 220 | 0.0226 | 103000 | 691 | 0.0152 | 22000 | 453 | 0.0151 | 33300 | 290 | 0.0274 | 94400 | 1340 | 0.0258 | 19300 | 170 | 0.0075 | kon (rhC5a_(core) (human)): 45000 M⁻¹ s⁻¹
4 | B3 | 67.1 | 0.0101 | 150000 | 62.1 | 0.0213 | 344000 | 624 | 0.0132 | 21200 | 532 | 0.0121 | 22800 | 346 | 0.0271 | 78500 | 751 | 0.0195 | 26100 | 88.7 | 0.00438 | kon (rhC5a_(core) (human)): 49300 M⁻¹ s⁻¹
5 | B4 | 68.3 | 0.00934 | 137000 | 86.6 | 0.0129 | 148000 | 965 | 0.0121 | 12500 | 384 | 0.0115 | 30100 | 94.9 | 0.0259 | 273000 | 734 | 0.0182 | 24800 | 90 | 0.004 | kon (rhC5a_(core) (human)): 44400 M⁻¹ s⁻¹
